In paper PMC7679967:

Target: human Hsp90β (HSP90AB1) (human) (UniProt P08238)
Experiment: SEC-MALS

Chain of human Hsp90β (HSP90AB1), P08238 1-724 (natural protein; other documents disagree on this pair) (P08238 whole entry): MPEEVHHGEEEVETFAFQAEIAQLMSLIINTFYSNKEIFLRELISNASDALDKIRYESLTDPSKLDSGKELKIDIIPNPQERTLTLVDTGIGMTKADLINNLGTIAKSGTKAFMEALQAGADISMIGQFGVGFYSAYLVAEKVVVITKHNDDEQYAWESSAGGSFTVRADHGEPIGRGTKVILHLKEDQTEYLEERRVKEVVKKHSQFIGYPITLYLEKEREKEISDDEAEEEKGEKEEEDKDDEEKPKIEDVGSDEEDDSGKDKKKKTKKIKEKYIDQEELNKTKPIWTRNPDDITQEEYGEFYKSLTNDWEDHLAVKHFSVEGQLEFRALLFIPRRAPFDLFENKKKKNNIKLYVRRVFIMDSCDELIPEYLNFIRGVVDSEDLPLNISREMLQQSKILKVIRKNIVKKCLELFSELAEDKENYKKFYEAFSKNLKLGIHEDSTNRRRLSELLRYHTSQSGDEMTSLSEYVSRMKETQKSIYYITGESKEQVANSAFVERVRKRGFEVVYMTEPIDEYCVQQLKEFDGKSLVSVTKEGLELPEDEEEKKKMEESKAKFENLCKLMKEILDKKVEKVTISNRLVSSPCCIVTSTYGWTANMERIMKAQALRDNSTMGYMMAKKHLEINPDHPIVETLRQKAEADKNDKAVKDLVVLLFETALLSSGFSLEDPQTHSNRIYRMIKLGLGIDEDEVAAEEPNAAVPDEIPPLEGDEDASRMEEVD

stoichiometry N: 2
Substance: human Hsp90β (HSP90AB1), P08238 1-724 (natural protein; other documents disagree on this pair)
